Blank lines part the entries; values can stand above or below the substance they belong to.
Assays:
[1] = target: mouse IgG (Sigma Chemical Co., product number I5381); assay: resonant light scattering; step 1, 2.2 mg/mL E. coli cellular extract proteins on mouse IgG microparticles; against the starting spectra
[2] = target: mouse IgG (Sigma Chemical Co., product number I5381); assay: resonant light scattering; step C, 40 µg/mL Fab specific goat anti-mouse IgG on mouse IgG held by Protein G′ microparticles; shift is cumulative against the unbound reference (0.054 nm after step B)
[3] = target: mouse IgG (Sigma Chemical Co., product number I5381); assay: resonant light scattering; step 2, 50 µg/mL anti-Alexa rabbit IgG in cell extract background on mouse IgG microparticles; against the starting spectra
[4] = target: avidin (from egg white, Sigma Chemical Co., product number A9275) (UniProt P02701); assay: resonant light scattering; step C, 50 µg/mL antibody on avidin held on biotinylated microparticles; shift is cumulative against the unbound reference (avidin step alone 0.031 nm); N=18
Chain of UniProt P02701 (P02701 25-152 limits assumed): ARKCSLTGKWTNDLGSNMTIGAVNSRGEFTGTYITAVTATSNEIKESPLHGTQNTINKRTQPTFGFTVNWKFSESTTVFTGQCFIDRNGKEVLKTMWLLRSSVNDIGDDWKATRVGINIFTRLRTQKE

[5] = target: Protein G′ (Sigma Chemical Co. product P-4689) (group G Streptococcal strain) (UniProt P19909); assay: resonant light scattering, real time; 10 µg/mL mouse IgG on Protein G′ microparticles
[6] = target: Protein G′ (Sigma Chemical Co. product P-4689) (group G Streptococcal strain) (UniProt P19909); assay: resonant light scattering, real time; 10 µg/mL mouse IgG on Protein G′ microparticles; time 5 min
[7] = target: Protein G′ (Sigma Chemical Co. product P-4689) (group G Streptococcal strain) (UniProt P19909); assay: resonant light scattering, real time; 50 µg/mL mouse IgG on Protein G′ microparticles; time 5 min
[8] = target: Protein G′ (Sigma Chemical Co. product P-4689) (group G Streptococcal strain) (UniProt P19909); assay: resonant light scattering, real time; 10 µg/mL mouse IgG on Protein G′ microparticles; time 11 min
[9] = target: Protein G′ (Sigma Chemical Co. product P-4689) (group G Streptococcal strain) (UniProt P19909); assay: resonant light scattering, real time; 10 µg/mL mouse IgG on Protein G′ microparticles; time 16 min
[10] = target: Protein G′ (Sigma Chemical Co. product P-4689) (group G Streptococcal strain) (UniProt P19909); assay: resonant light scattering, real time; 10 µg/mL mouse IgG on Protein G′ microparticles; time 20 min
[11] = target: Protein G′ (Sigma Chemical Co. product P-4689) (group G Streptococcal strain) (UniProt P19909); assay: resonant light scattering, real time; 10 µg/mL mouse IgG on Protein G′ microparticles; time 25 min
[12] = target: Protein G′ (Sigma Chemical Co. product P-4689) (group G Streptococcal strain) (UniProt P19909); assay: resonant light scattering, real time; 10 µg/mL mouse IgG on Protein G′ microparticles; time 30 min
[13] = target: Protein G′ (Sigma Chemical Co. product P-4689) (group G Streptococcal strain) (UniProt P19909); assay: resonant light scattering, real time; 10 µg/mL mouse IgG on Protein G′ microparticles; time 35 min
[14] = target: Protein G′ (Sigma Chemical Co. product P-4689) (group G Streptococcal strain) (UniProt P19909); assay: resonant light scattering, real time; 10 µg/mL mouse IgG on Protein G′ microparticles; time 40 min
[15] = target: Protein G′ (Sigma Chemical Co. product P-4689) (group G Streptococcal strain) (UniProt P19909); assay: resonant light scattering, real time; 10 µg/mL mouse IgG on Protein G′ microparticles; time 50 min
[16] = target: Protein G′ (Sigma Chemical Co. product P-4689) (group G Streptococcal strain) (UniProt P19909); assay: resonant light scattering, real time; 10 µg/mL mouse IgG on Protein G′ microparticles; time 60 min
[17] = target: Protein G′ (Sigma Chemical Co. product P-4689) (group G Streptococcal strain) (UniProt P19909); assay: resonant light scattering, real time; 50 µg/mL mouse IgG on Protein G′ microparticles; time 11 min
[18] = target: Protein G′ (Sigma Chemical Co. product P-4689) (group G Streptococcal strain) (UniProt P19909); assay: resonant light scattering, real time; 50 µg/mL mouse IgG on Protein G′ microparticles; time 20 min
[19] = target: Protein G′ (Sigma Chemical Co. product P-4689) (group G Streptococcal strain) (UniProt P19909); assay: resonant light scattering, real time; 50 µg/mL mouse IgG on Protein G′ microparticles; time 30 min
[20] = target: Protein G′ (Sigma Chemical Co. product P-4689) (group G Streptococcal strain) (UniProt P19909); assay: resonant light scattering, real time; 50 µg/mL mouse IgG on Protein G′ microparticles; time 35 min
[21] = target: Protein G′ (Sigma Chemical Co. product P-4689) (group G Streptococcal strain) (UniProt P19909); assay: resonant light scattering, real time; 500 µg/mL mouse IgG on Protein G′ microparticles; time 5 min
[22] = target: Protein G′ (Sigma Chemical Co. product P-4689) (group G Streptococcal strain) (UniProt P19909); assay: resonant light scattering, real time; 500 µg/mL mouse IgG on Protein G′ microparticles; time 11 min
[23] = target: Protein G′ (Sigma Chemical Co. product P-4689) (group G Streptococcal strain) (UniProt P19909); assay: resonant light scattering, real time; 500 µg/mL mouse IgG on Protein G′ microparticles; time 16 min
[24] = target: Protein G′ (Sigma Chemical Co. product P-4689) (group G Streptococcal strain) (UniProt P19909); assay: resonant light scattering, real time; 500 µg/mL mouse IgG on Protein G′ microparticles; time 20 min
[25] = target: Protein G′ (Sigma Chemical Co. product P-4689) (group G Streptococcal strain) (UniProt P19909); assay: resonant light scattering, real time; 500 µg/mL mouse IgG on Protein G′ microparticles; time 25 min
[26] = target: Protein G′ (Sigma Chemical Co. product P-4689) (group G Streptococcal strain) (UniProt P19909); assay: resonant light scattering, real time; 500 µg/mL mouse IgG on Protein G′ microparticles; time 30 min
[27] = target: Protein G′ (Sigma Chemical Co. product P-4689) (group G Streptococcal strain) (UniProt P19909); assay: resonant light scattering, real time; 500 µg/mL mouse IgG on Protein G′ microparticles; time 35 min
[28] = target: Protein G′ (Sigma Chemical Co. product P-4689) (group G Streptococcal strain) (UniProt P19909); assay: resonant light scattering, real time; 10 µg/mL mouse IgG on Protein G′ microparticles; time 0 min (reference)
[29] = target: Protein G′ (Sigma Chemical Co. product P-4689) (group G Streptococcal strain) (UniProt P19909); assay: resonant light scattering, real time; 50 µg/mL mouse IgG on Protein G′ microparticles; time 0 min (reference)
[30] = target: Protein G′ (Sigma Chemical Co. product P-4689) (group G Streptococcal strain) (UniProt P19909); assay: resonant light scattering, real time; 500 µg/mL mouse IgG on Protein G′ microparticles; time 0 min (reference)
[31] = target: Protein G′ (Sigma Chemical Co. product P-4689) (group G Streptococcal strain) (UniProt P19909); assay: resonant light scattering; step B, 50 µg/mL mouse IgG on Protein G′ microparticles, 0.5 h; against the unbound reference
[32] = target: mouse IgG (Sigma Chemical Co., product number I5381); assay: resonant light scattering; step 3, 50 µg/mL rabbit anti-mouse IgG in step 2 background on mouse IgG microparticles; against the starting spectra

Substance: E. coli cellular extract proteins
resonance wavelength shift [1]: -0.005 nm

Substance: anti-Alexa Fluor 488 rabbit IgG (Molecular Probes, Inc. product number A-11094) (antibody)
resonance wavelength shift [3]: -0.004 nm

Substance: biotinylated anti-bovine immunoglobulin G (IgG) [H+L] [Goat] (Rockland Inc., product number 601-1602) (antibody)
resonance wavelength shift [4]: 0.069 nm

The remaining lines, values ahead:

resonance wavelength shift [2]: 0.111 nm
Substance: Fab specific goat anti-mouse IgG (Sigma Chemical Co. product M 6898) (antibody)

percent of the saturation binding level [5]: 70%
wavelength shift [6]: 0.01 nm
wavelength shift [7]: 0.032 nm
wavelength shift [8]: 0.022 nm
wavelength shift [9]: 0.026 nm
wavelength shift [10]: 0.03 nm
wavelength shift [11]: 0.041 nm
wavelength shift [12]: 0.036 nm
wavelength shift [13]: 0.036 nm
wavelength shift [14]: 0.041 nm
wavelength shift [15]: 0.043 nm
wavelength shift [16]: 0.043 nm
wavelength shift [17]: 0.037 nm
wavelength shift [18]: 0.051 nm
wavelength shift [19]: 0.058 nm
wavelength shift [20]: 0.06 nm
wavelength shift [21]: 0.037 nm
wavelength shift [22]: 0.049 nm
wavelength shift [23]: 0.05 nm
wavelength shift [24]: 0.053 nm
wavelength shift [25]: 0.052 nm
wavelength shift [26]: 0.054 nm
wavelength shift [27]: 0.054 nm
wavelength shift [28]: 0 nm
wavelength shift [29]: 0 nm
wavelength shift [30]: 0 nm
resonance wavelength shift [31]: 0.054 nm
Substance: mouse IgG (Sigma Chemical Co., product number I5381) (antibody)

resonance wavelength shift [32]: 0.056 nm
Substance: rabbit anti-mouse IgG (H+L) (unconjugated, Pierce, product 31188) (antibody)

Reference: US20050019842A1
